Data: paper PMC7041687 (The Journal of Cell Biology, 2019)
Residue numbers refer to the chain shown, from its start. Ends that are not written are not given here.

T1: Ana2 full length, wild type, nonphosphorylated (purified) (Drosophila, UniProt Q9XZ31 1-420)
T1 sequence (looked up): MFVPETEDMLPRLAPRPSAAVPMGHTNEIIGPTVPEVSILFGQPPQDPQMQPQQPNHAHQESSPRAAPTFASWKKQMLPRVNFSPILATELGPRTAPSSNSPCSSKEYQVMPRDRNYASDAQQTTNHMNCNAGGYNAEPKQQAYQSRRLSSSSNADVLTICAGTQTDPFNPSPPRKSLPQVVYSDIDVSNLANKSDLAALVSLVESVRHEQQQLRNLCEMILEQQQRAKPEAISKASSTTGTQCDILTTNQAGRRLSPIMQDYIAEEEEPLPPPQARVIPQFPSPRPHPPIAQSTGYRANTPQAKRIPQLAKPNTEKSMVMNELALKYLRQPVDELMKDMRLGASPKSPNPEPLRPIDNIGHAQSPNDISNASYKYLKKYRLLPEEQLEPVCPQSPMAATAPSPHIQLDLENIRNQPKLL

T2: Ana2 S38A full length, nonphosphorylated (purified) (Drosophila, UniProt Q9XZ31 1-420, S38A)
T2 sequence (looked up): T1 sequence (looked up) with S38A

B1: Ana2 1–60 (amino acids 1–60), nonphosphorylated (domain or fragment, Drosophila, UniProt Q9XZ31 1-60, looked up)
chain: MFVPETEDMLPRLAPRPSAAVPMGHTNEIIGPTVPEVSILFGQPPQDPQMQPQQPNHAHQ
B2: Ana2 1–60 prephosphorylated with purified Plk4 (domain or fragment, Drosophila, UniProt Q9XZ31 1-60, looked up)
chain: B1 chain
modifications: also: prephosphorylated by Plk4, sites not listed
B3: His6-Thrombin-Sas4-606 (Sas4 amino acids 606–901) (domain or fragment, Drosophila, UniProt Q9VI72 606-901, looked up)
chain: RNIARLAPKVLPSATMSDILDENGRRTQSLDGTAGKPAKQREAQNRRQSSGSAQVRSRSRSLSRNKKTPYALDESYASSSSVESEEVQPPVTAPKAATPPPAANSSSDFKREITNADGSKDIWYPNGNLKKISADGMNLRMLYFNKDIKETNIREGTVKYYYAETNTWHTSYLDGLEILEFPNGQTEHRRKDGTVEIHFPNNSIKIVDPSDTEKLEEWRYADGTHLVQLRNGDKILNLPNGQKEIHTKLNKRREYPDGTVKLVYPDGSQETRYSNGRVRLKDKDGKLIMDTDYAKY

Tests used:
Experiment in all cases: BLI
[1] = target: B3
[2] = target: T1, Ana2 full length, wild type, …
[3] = target: T2, Ana2 S38A full length, …

Row | Binder | Kd [1] [nM] | Kd [2] [nM] | Kd [3] [nM]
1 | B1 | 134 |  | 
2 | B2 | 72 |  | 
3 | B3 |  | 26 | 31
